{
  "source": "patent US20030203372A1",
  "about": "“Analysis method” (priority 2000, published 2003)",
  "key": {"[1]": {"system": "human macrophages", "assay": "Custom gene array, macrophages with no cytokines, IL-10 or LPS + IFN, in normoxia and hypoxia", "type": "cell-based", "details": "Table 15, referenced to the median value of that gene throughout all 6 conditions", "outline": "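Cultured macrophages were left untreated or given IL-10 or LPS + IFN, each at 100 ng/ml final, for 6 hr under normoxia or hypoxia (0.1% oxygen). Six conditions in total.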"}, "[2]": {"system": "human breast and ovary tumors", "assay": "Custom gene array, breast and ovary tumors versus normal adjacent tissue", "details": "Table 19", "outline": "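Values are per-gene relative to that gene's median across the series, after per-chip normalisation for labelling and hybridization efficiency. Samples: breast and ovary tumors with normal tissue from 5 patients of varied diagnoses, mostly from the same individual (one age-matched separate donor), compared within patient.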"}, "[3]": {"system": "primary human cell cultures (11 cell types)", "assay": "Custom gene array, 11 human cell types in normoxia or hypoxia for 6 hr and 18 hr", "type": "cell-based", "outline": "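Values are each gene's expression relative to its median over all cell types and conditions, after per-array normalisation to control genes and merging of replicate arrays. Cells were 11 human types, mostly unmodified primary cultures, kept in normoxia or exposed to hypoxia for 6 hr or 18 hr.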"}},
  "data": [
    {"molecule": "p1F24 (nucleic acid, listed as Homo Sapiens) DNA: ATGAACTGGCATCTCCCCCTCTTCCTCTTGGCCTCTGTGACGCTGCCTTCCATCTGCTCCCACTTCAATCCTCTGTCTCTCGAGGAACTAGGCTCCAACACGGGGATCCAGGTTTTCAATCAGATTGTGAAGTCGAGGCCTCATGACAACATCGTGATCTCTCCCCATGGGATTGCGTCGGTCCTGGGGATGCTTCAGCTGGGGGCGGACGGCAGGACCAAGAAGCAGCTCGCCATGGTGATGAGATACGGCGTAAATGGAGTTGGTAAAATATTAAAGAAGATCAACAAGGCCATCGTCTCCAAGAAGAATAAAGACATTGTGACAGTGGCTAACGCCGTGTTTGTTAAGAATGCCTCTGAAATTGAAGTGCCTTTTGTTACAAGGAACAAAGATGTGTTCCAGTGTGAGGTCCGGAATGTGAACTTTGAGGATCCAGCCTCTGCCTGTGATTCCATCAATGCATGGGTTAAAAACGAAACCAGGGATATGATTGACAATCTGCTGTCCCCAGATCTTATTGATGGTGTGCTCACCAGACTGGTCCTCGTCAACGCAGTGTATTTCAAGGGTCTGTGGAAATCACGGTTCCAACCCGAGAACACAAAGAAACGCACTTTCGTGGCAGCCGACGGGAAATCCTATCAAGTGCCAATGCTGGCCCAGCTCTCCGTGTTCCGGTGTGGGTCGACAAGTGCCCCCAATGATTTATGGTACAACTTCATTGAACTGCCCTACCACGGGGAAAGCATCAGCATGCTGATTGCACTGCCGACTGAGAGCTCCACTCCGCTGTCTGCCATCATCCCACACATCAGCACCAAGACCATAGACAGCTGGATGAGCATCATGGTCCCCAAGAGGGTGCAGGTGATCCTGCCCAAGTTCACAGCTGTAGCACAAACAGATTTGAAGGAGCCGCTGAAAGTTCTTGGCATTACTGACATGTTTGATTCATCAAAGGCAAATTTTGCAAAAATAACAAGGTCAGAAAACCTCCATGTTTCTCATATCTTGCAAAAAGCAAAAATTGAAGTCAGTGAAGATGGAACCAAAGCTTCAGCAGCAACAACTGCAATTCTCATTGCAAGATCATCGCCTCCCTGGTTTATAGTAGACAGACCTTTTCTGTTTTTCATCCGACATAATCCTACAGGTGCTGTGTTATTCATGGGGCAGATAAACAAACCC", "values": [
      {"measurement": "mRNA EXPRESSION (experimental condition) #1", "setting": "[1]; #1 no cytokines/normoxia", "value": 0.65},
      {"measurement": "mRNA EXPRESSION (experimental condition) #2", "setting": "[1]; #2 no cytokines/hypoxia", "value": 0.68},
      {"measurement": "mRNA EXPRESSION (experimental condition) #3", "setting": "[1]; #3 IL-10/normoxia", "value": 0.99},
      {"measurement": "mRNA EXPRESSION (experimental condition) #4", "setting": "[1]; #4 IL-10/hypoxia", "value": 1.10},
      {"measurement": "mRNA EXPRESSION (experimental condition) #5", "setting": "[1]; #5 LPS/IFN/normoxia", "value": 1.62},
      {"measurement": "mRNA EXPRESSION (experimental condition) #6", "setting": "[1]; #6 LPS/IFN/hypoxia", "value": 1.80},
      {"measurement": "gene expression level on custom gene array, Breast nor H", "setting": "[2]; breast, normal adjacent tissue, patient H", "value": 1.64},
      {"measurement": "gene expression level on custom gene array, Breast nor K", "setting": "[2]; breast, normal adjacent tissue, patient K", "value": 1.25},
      {"measurement": "gene expression level on custom gene array, Breast tum H", "setting": "[2]; breast, tumor tissue, patient H", "value": 1.89},
      {"measurement": "gene expression level on custom gene array, Breast tum K", "setting": "[2]; breast, tumor tissue, patient K", "value": 0.96},
      {"measurement": "gene expression level on custom gene array, Ovary nor E", "setting": "[2]; ovary, normal adjacent tissue, patient E", "value": 3.17},
      {"measurement": "gene expression level on custom gene array, Ovary nor F", "setting": "[2]; ovary, normal adjacent tissue, patient F", "value": 3.24},
      {"measurement": "gene expression level on custom gene array, Ovary nor G", "setting": "[2]; ovary, normal adjacent tissue, patient G", "value": 1.26},
      {"measurement": "gene expression level on custom gene array, Ovary tum E", "setting": "[2]; ovary, tumor tissue, patient E", "value": 0.93},
      {"measurement": "gene expression level on custom gene array, Ovary tum F", "setting": "[2]; ovary, tumor tissue, patient F", "value": 0.85},
      {"measurement": "gene expression level on custom gene array, Ovary tum G", "setting": "[2]; ovary, tumor tissue, patient G", "value": 0.80},
      {"measurement": "mRNA expression level", "setting": "[3]; cell type #1, HY (hypoxia) 6 hr", "value": 0.70},
      {"measurement": "mRNA expression level", "setting": "[3]; cell type #1, HY (hypoxia) 18 hr", "value": 1.01},
      {"measurement": "mRNA expression level", "setting": "[3]; cell type #1, NO (normoxia)", "value": 1.17},
      {"measurement": "mRNA expression level", "setting": "[3]; cell type #2, HY (hypoxia) 6 hr", "value": 5.52},
      {"measurement": "mRNA expression level", "setting": "[3]; cell type #2, HY (hypoxia) 18 hr", "value": 8.15},
      {"measurement": "mRNA expression level", "setting": "[3]; cell type #2, NO (normoxia)", "value": 9.63},
      {"measurement": "mRNA expression level", "setting": "[3]; cell type #3, HY (hypoxia) 6 hr", "value": 0.87},
      {"measurement": "mRNA expression level", "setting": "[3]; cell type #3, HY (hypoxia) 18 hr", "value": 0.56},
      {"measurement": "mRNA expression level", "setting": "[3]; cell type #3, NO (normoxia)", "value": 0.56},
      {"measurement": "mRNA expression level", "setting": "[3]; cell type #4, HY (hypoxia) 6 hr", "value": 11.5},
      {"measurement": "mRNA expression level", "setting": "[3]; cell type #4, HY (hypoxia) 18 hr", "value": 14.2},
      {"measurement": "mRNA expression level", "setting": "[3]; cell type #4, NO (normoxia)", "value": 12.8},
      {"measurement": "mRNA expression level", "setting": "[3]; cell type #5, HY (hypoxia) 6 hr", "value": 0.15},
      {"measurement": "mRNA expression level", "setting": "[3]; cell type #5, NO (normoxia)", "value": 0.12},
      {"measurement": "mRNA expression level", "setting": "[3]; cell type #6, HY (hypoxia) 6 hr", "value": 0.14},
      {"measurement": "mRNA expression level", "setting": "[3]; cell type #6, NO (normoxia)", "value": 0.11}
    ]}
  ]
}
